Measurements reported in patent US20070105771A1 (Y S THERAPEUTICS, published 2007).
Residue numbers refer to the chain shown, from its start.

Tests used:
[1] = molecular target: human CD26 on the cell surface (human, UniProt P27487 1-766); assay: cell-based or functional assay
[2] = molecular target: T1, human CD26-derived 13 mer peptide 117 (human); assay: peptide microarray
T1 peptide: TNATSIQITAPAS
Method: (§1) The overnight incubation was followed by three washings with each of PBS buffer pH 7.5 and water. The microarrays were then scanned using ArrayWorx-Microarray Scanner.
(§2) The SPOT recognition software package ArrayPro was used for data analysis. The mean of signal intensities from 3 identical subarrays on each microarray image was used for data evaluation.

[3] = molecular target: T2, human CD26-derived 13 mer peptide 46 (human); assay: peptide microarray
T2 construct: also called NKRQL1TEERIPN
T2 peptide: NKRQLITEERIPN
Method: as §1, §2

[4] = molecular target: T3, human CD26-derived 13 mer peptide 62 (human); assay: peptide microarray
T3 peptide: NDIYVKIEPNLPS
Method: as §1, §2

[5] = molecular target: T4, human CD26-derived 13 mer peptide 60 (human); assay: peptide microarray
T4 peptide: YVWNNDIYVKIEP
Method: as §1, §2

[6] = molecular target: T5, human CD26-derived 13 mer peptide 26 (human); assay: peptide microarray
T5 peptide: FGHSINDYSISPD
Method: as §1, §2

[7] = molecular target: T6, human CD26-derived 13 mer peptide 100 (human); assay: peptide microarray
T6 peptide: LQYPKTVRVPYPK
Method: as §1, §2

[8] = molecular target: T7, human CD26-derived 13 mer peptide 103 (human); assay: peptide microarray
T7 peptide: VRVPYPKAGAVNP
Method: as §1, §2

[9] = molecular target: T8, human CD26-derived 13 mer peptide 102 (human); assay: peptide microarray
T8 peptide: KTVRVPYPKAGAV
Method: as §1, §2

[10] = molecular target: T9, human CD26-derived 13 mer peptide 90 (human); assay: peptide microarray
T9 peptide: AQFNDTEVPLIEY
Method: as §1, §2

[11] = molecular target: T10, human CD26-derived 13 mer peptide 15 (human); assay: peptide microarray
T10 peptide: ILVFNAEYGNSSV
Method: as §1, §2

[12] = molecular target: T11, human CD26-derived 13 mer peptide 18 (human); assay: peptide microarray
T11 peptide: EYGNSSVFLENST
Method: as §1, §2

[13] = molecular target: T12, human CD26-derived 13 mer peptide 112 (human); assay: peptide microarray
T12 peptide: VVNTDSLSSVTNA
Method: as §1, §2

[14] = molecular target: T13, human CD26-derived 13 mer peptide 44 (human); assay: peptide microarray
T13 peptide: IYDLNKRQLITEE
Method: as §1, §2

[15] = molecular target: T14, human CD26-derived 13 mer peptide 24 (human); assay: peptide microarray
T14 peptide: TFDEFGHSINDYS
Method: as §1, §2

[16] = molecular target: T15, human CD26-derived 13 mer peptide 104 (human); assay: peptide microarray
T15 peptide: VPYPKAGAVNPTV
Method: as §1, §2

[17] = molecular target: T16, human CD26-derived 13 mer peptide 45 (human); assay: peptide microarray
T16 peptide: DLNKRQLITEERI
Method: as §1, §2

[18] = molecular target: T17, human CD26-derived 13 mer peptide 119 (human); assay: peptide microarray
T17 peptide: SIQITAPASMLIG
Method: as §1, §2

[19] = molecular target: T18, human CD26-derived 13 mer peptide 71 (human); assay: peptide microarray
T18 peptide: TGKEDIIYNGITD
Method: as §1, §2

[20] = molecular target: T19, human CD26-derived 13 mer peptide 61 (human); assay: peptide microarray
T19 peptide: WNNDIYVKIEPNL
Method: as §1, §2

[21] = molecular target: T20, human CD26-derived 13 mer peptide 122 (human); assay: peptide microarray
T20 peptide: PASMLIGDHYLCD
Method: as §1, §2

[22] = molecular target: T21, human CD26-derived 13 mer peptide 23 (human); assay: peptide microarray
T21 peptide: NSTFDEFGHSIND
Method: as §1, §2

[23] = molecular target: T22, human CD26-derived 13 mer peptide 43 (human); assay: peptide microarray
T22 peptide: YDIYDLNKRQLIT
Method: as §1, §2

[24] = molecular target: T23, human CD26-derived 13 mer peptide 47 (human); assay: peptide microarray
T23 peptide: RQLITEERIPNNT
Method: as §1, §2

[25] = molecular target: T24, human CD26-derived 13 mer peptide 10 (human); assay: peptide microarray
T24 peptide: HEYLYKQENNILV
Method: as §1, §2

[26] = molecular target: T25, human CD26-derived 13 mer peptide 25 (human); assay: peptide microarray
T25 peptide: DEFGHSINDYSIS
Method: as §1, §2

[27] = molecular target: T26, human CD26-derived 13 mer peptide 22 (human); assay: peptide microarray
T26 peptide: LENSTFDEFGHSI
Method: as §1, §2

[28] = molecular target: T27, human CD26-derived 13 mer peptide 116 (human); assay: peptide microarray
T27 peptide: SVTNATSIQITAP
Method: as §1, §2

[29] = molecular target: T28, human CD26-derived 13 mer peptide 88 (human); assay: peptide microarray
T28 peptide: FLAYAQFNDTEVP
Method: as §1, §2

[30] = molecular target: T29, human CD26-derived 13 mer peptide 118 (human); assay: peptide microarray
T29 peptide: ATSIQITAPASML
Method: as §1, §2

[31] = molecular target: T30, human CD26-derived 13 mer peptide 21 (human); assay: peptide microarray
T30 peptide: VFLENSTFDEFGH
Method: as §1, §2

[32] = molecular target: T31, human CD26-derived 13 mer peptide 28 (human); assay: peptide microarray
T31 peptide: INDYSISPDGQFI
Method: as §1, §2

[33] = molecular target: T32, human CD26-derived 13 mer peptide 9 (human); assay: peptide microarray
T32 peptide: SDHEYLYKQENNI
Method: as §1, §2

[34] = molecular target: T33, human CD26-derived 13 mer peptide 111 (human); assay: peptide microarray
T33 peptide: FFVVNTDSLSSVT
Method: as §1, §2

[35] = molecular target: T34, human CD26-derived 13 mer peptide 67 (human); assay: peptide microarray
T34 construct: also called LPSYRITWTGKED
T34 peptide: LPSYRITWTGKED
Method: as §1, §2

[36] = molecular target: T35, human CD26-derived 13 mer peptide 110 (human); assay: peptide microarray
T35 peptide: VKFFVVNTDSLSS
Method: as §1, §2

[37] = molecular target: T36, human CD26-derived 13 mer peptide 96 (human); assay: peptide microarray
T36 peptide: YSFYSDESLQYPK
Method: as §1, §2

[38] = molecular target: T37, human CD26-derived 13 mer peptide 87 (human); assay: peptide microarray
T37 peptide: GTFLAYAQFNDTE
Method: as §1, §2

[39] = molecular target: T38, Purified recombinant human CD26 (rhDipeptidyl peptidase IV), R&D Systems CAT #1180-SE (human, UniProt P27487 29-766); assay: SPR (Biacore), Fab
T38 construct: Bought recombinant protein; also called hu-CD26; soluble human CD26

[40] = molecular target: T38, Purified recombinant human CD26 …; assay: SPR (Biacore), CD26 preoccupied by the Fab; competitor 14D10 ascites
Excerpt: A specificity analysis of selected Fabs comprising pairs of variant VH and VL sequences was done. […] The analysis was done using Biacore® as described in Example 1.

[41] = molecular target: T38, Purified recombinant human CD26 …; assay: SPR (Biacore), Fab; remark: listed apart in the source
[42] = molecular target: T38, Purified recombinant human CD26 …; assay: SPR (Biacore)

Sequence of human CD26 on the cell surface (P27487 whole entry): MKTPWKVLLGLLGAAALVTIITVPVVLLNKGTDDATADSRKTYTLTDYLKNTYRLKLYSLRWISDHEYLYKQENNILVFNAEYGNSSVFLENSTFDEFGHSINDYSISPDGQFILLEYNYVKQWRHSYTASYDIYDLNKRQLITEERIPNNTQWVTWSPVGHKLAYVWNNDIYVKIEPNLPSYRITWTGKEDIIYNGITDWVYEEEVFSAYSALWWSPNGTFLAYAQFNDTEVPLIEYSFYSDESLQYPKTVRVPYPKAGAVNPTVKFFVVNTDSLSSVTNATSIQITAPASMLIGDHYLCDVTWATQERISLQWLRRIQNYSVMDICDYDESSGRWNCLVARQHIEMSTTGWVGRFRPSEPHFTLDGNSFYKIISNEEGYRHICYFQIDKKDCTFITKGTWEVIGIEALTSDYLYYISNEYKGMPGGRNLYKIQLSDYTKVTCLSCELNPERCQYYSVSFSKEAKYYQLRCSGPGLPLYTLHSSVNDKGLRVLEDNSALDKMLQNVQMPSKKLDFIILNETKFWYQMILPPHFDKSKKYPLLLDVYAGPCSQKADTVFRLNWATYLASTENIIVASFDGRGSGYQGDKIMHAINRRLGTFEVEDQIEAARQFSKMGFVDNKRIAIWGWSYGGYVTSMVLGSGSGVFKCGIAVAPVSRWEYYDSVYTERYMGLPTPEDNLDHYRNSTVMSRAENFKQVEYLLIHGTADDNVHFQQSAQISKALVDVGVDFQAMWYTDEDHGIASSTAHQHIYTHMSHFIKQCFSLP
T38 sequence (P27487 29-766 limits assumed): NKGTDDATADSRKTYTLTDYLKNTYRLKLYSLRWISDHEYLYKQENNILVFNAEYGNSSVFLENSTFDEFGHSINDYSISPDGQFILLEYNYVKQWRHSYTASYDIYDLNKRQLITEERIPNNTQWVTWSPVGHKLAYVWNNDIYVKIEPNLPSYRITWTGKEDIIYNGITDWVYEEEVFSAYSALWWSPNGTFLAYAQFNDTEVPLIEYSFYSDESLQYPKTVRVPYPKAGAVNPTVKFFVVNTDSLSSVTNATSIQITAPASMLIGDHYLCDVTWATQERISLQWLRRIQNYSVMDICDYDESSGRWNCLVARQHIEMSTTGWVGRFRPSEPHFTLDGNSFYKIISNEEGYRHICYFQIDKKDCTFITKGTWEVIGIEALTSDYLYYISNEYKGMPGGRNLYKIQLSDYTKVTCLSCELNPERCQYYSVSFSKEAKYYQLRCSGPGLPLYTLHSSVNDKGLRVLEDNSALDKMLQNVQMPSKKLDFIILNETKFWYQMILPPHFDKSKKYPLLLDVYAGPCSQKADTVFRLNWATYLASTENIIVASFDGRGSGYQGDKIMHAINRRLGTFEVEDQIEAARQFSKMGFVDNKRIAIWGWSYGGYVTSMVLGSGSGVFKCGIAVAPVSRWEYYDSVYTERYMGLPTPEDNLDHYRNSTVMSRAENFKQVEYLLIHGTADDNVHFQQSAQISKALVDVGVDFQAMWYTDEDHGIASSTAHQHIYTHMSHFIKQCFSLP

B1: rhuMAb 412 (antibody, human IgG1, V domains shown)
VH: EVQLVQSGGGVKQPGETLRLTCTASGFSLTTYGVHWVRQAPGKGLEWVGVIWGDGRTDYDAAFMSRVTISKDTSKSTAYLQMNSLRAEDTAVYYCMRNRHDWFDYWGQGTTVTVSS
VL: EIEMTQSPSSLSVSAGERATISCSASQDIRNSLNWYQQKPGQAPRLLIYYSSNLHTGVPARFSGSGSGTDFTLTISRLEPEDVAIYYCQQSNKLPLTFGSGTKVEIKR
notes: X385 VH and X380 VL with human IgG1 and human kappa constant regions; also called X412
percent inhibition, MTT assay, Jurkat CD26+ cells, 0.05 ug/ml [1]: 0.3%
percent inhibition, MTT assay, Jurkat CD26+ cells, 0.25 ug/ml [1]: 5.4%
percent inhibition, MTT assay, Jurkat CD26+ cells, 5 ug/ml [1]: 23.6%
Mean Signal Value [2]: 0
Mean Signal Value [3]: 0
Mean Signal Value [4]: 0
Mean Signal Value [5]: 0
Mean Signal Value [6]: 0
Mean Signal Value [7]: 0
Mean Signal Value [8]: 0
Mean Signal Value [9]: 0
Mean Signal Value [10]: 0
Mean Signal Value [11]: 0
Mean Signal Value [12]: 0
Mean Signal Value [13]: 0
Mean Signal Value [14]: 0
Mean Signal Value [15]: 0
Mean Signal Value [16]: 0
Mean Signal Value [17]: 0
Mean Signal Value [18]: 0
Mean Signal Value [19]: 0
Mean Signal Value [20]: 0
Mean Signal Value [21]: 0
Mean Signal Value [22]: 0
Mean Signal Value [23]: 0
Mean Signal Value [24]: 0
Mean Signal Value [25]: 0
Mean Signal Value [26]: 0
Mean Signal Value [27]: 0
Mean Signal Value [28]: 0
Mean Signal Value [29]: 0
Mean Signal Value [30]: 0
Mean Signal Value [31]: 0
Mean Signal Value [32]: 0
Mean Signal Value [33]: 0
Mean Signal Value [34]: 0
Mean Signal Value [35]: 0
Mean Signal Value [36]: 0
Mean Signal Value [37]: 0
Mean Signal Value [38]: 0

B2: Fab X392 (X384 VH and X379 VL) (Fab, V domains shown)
VH: B1 VH with Q6E, G9A, E16G, A78V
VL: DILLTQSPSSLSATPGERATITCRASQGIRNNLNWYQQKPGQAPRLLIYYSSNLQSGVPSRFSGSGSGTDFTLTISRLQPEDVAAYYCQQSIKLPFTFGSGTKVEIK
notes: Fab made in E. coli
Kd [39]: 0.24 nM
percent decrease in binding of 14D10 to CD26 [40]: ≥ 80%
Kd [41]: 0.24 nM
ratio of the Kd of CM03 Fab to the Kd of individual clone [41]: 6.79

B3: Fab X391 (X388 VH and X376 VL) (Fab, V domains shown)
VH: B1 VH with V11L, T21S, F27Y, V48M, A61S, A62S, M82L, M96T
VL: DILMTQSPSSLSASPGDRVTISCRASQDIRNNLNWYQQKPGQAPRLLIYYSSNLHSGVPDRFSGSGSGTDFTLTISRLEPEDFAAYYCQQSIKLPLTFGSGTKVEIK
notes: Fab made in E. coli
Kd [39]: 2.12 nM
percent decrease in binding of 14D10 to CD26 [40]: ≥ 80%
Kd [41]: 2.12 nM

B4: Fab X389 (X384 VH and X376 VL) (Fab, V domains shown)
VH: B1 VH with Q6E, G9A, E16G, A78V
VL: B3 VL
notes: Fab made in E. coli
Kd [39]: 0.38 nM
percent decrease in binding of 14D10 to CD26 [40]: ≥ 80%
Kd [41]: 0.38 nM
ratio of the Kd of CM03 Fab to the Kd of individual clone [41]: 4.29

B5: Fab X390 (X385 VH and X376 VL) (Fab, V domains shown)
VH: B1 VH
VL: B3 VL
notes: Fab made in E. coli
Kd [39]: 0.96 nM
percent decrease in binding of 14D10 to CD26 [40]: ≥ 80%
Kd [41]: 0.96 nM
ratio of the Kd of CM03 Fab to the Kd of individual clone [41]: 1.7

B6: Fab X393 (X385 VH and X379 VL) (Fab, V domains shown)
VH: B1 VH
VL: B2 VL
notes: Fab made in E. coli
Kd [39]: 0.33 nM
percent decrease in binding of 14D10 to CD26 [40]: ≥ 80%
Kd [41]: 0.33 nM
ratio of the Kd of CM03 Fab to the Kd of individual clone [41]: 4.94

B7: Fab X396 (X385 VH and X380 VL) (Fab, V domains shown)
VH: B1 VH
VL: EIEMTQSPSSLSVSAGERATISCSASQDIRNSLNWYQQKPGQAPRLLIYYSSNLHTGVPARFSGSGSGTDFTLTISRLEPEDVAIYYCQQSNKLPLTFGSGTKVEIK
notes: Fab made in E. coli
Kd [39]: 2.53 nM
percent decrease in binding of 14D10 to CD26 [40]: ≥ 80%
Kd [41]: 2.53 nM

B8: Fab X395 (X384 VH and X380 VL) (Fab, V domains shown)
VH: B1 VH with Q6E, G9A, E16G, A78V
VL: B7 VL
notes: Fab made in E. coli
Kd [39]: 3.26 nM
percent decrease in binding of 14D10 to CD26 [40]: ≥ 80%
Kd [41]: 3.26 nM
ratio of the Kd of CM03 Fab to the Kd of individual clone [41]: 0.5

B9: mouse monoclonal antibody CM03 (14D10) (antibody, V domains shown)
VH: QVKLQESGPGLVQPSQTLSITCTVSGFSLTTYGVHWVRQSPGKGLEWLGVIWGGGRTDYDAAFISRLSISKDNSKSQVFFKMNSLQANDTAIYYCVRNRHDWFDYWGQGTTVTVSS
VL: DIQMTQSPSSLSASLGDRVTITCSASQGIRNSLNWYQQKPDGAVKLLIYYSSNLHSGVPSRFSGSGSGTDFSLTISNLEPEDIATYYCQQSIKLPFTFGSGTKLEIK
notes: Mouse monoclonal antibody; also called murine MAb CM03
Kd [42]: 1.63 nM
